Source: patent US20250018053A1 (published 2025)

Target: -
Test: kinetic binding (Ka/Kdis fit)

Kd: 45.9 nM
B1: Ch-15A7.5 (antibody, V domains shown)
VH: EVKLVESGGGLVQPGGSRKLSCAASGFTFSNYGMAWVRQAPGKGPEWVAFISNLAYGINYADTVTGRFTISRENAKNTLYLEMRSLRSEDTAMYYCARGARATGWFAYWGQGTLVTVSA
VL: DIVMTQSQKFMSTSIGDRVSVTCKASQNVDTHVAWYQEKPGQSPKALIYSASYRYSGVPDRFTGSGSGTDFTLTISNVQSEDLADYFCQQYNSYPLTFGGGTKLEIK
